Assay results published in article PMC3314614, “The Tandem CARDs of NOD2: Intramolecular Interactions and Recognition of RIP2” (PLoS ONE, 2012).

Key:
[1] = molecular target: NOD2-CARDb (isolated) (human) (UniProt Q9HC29); experiment: ITC; CARDa in the syringe, CARDb in the cell; 30°C; 50 mM Tris-HCl, 1000 mM NaCl, 2 mM DTT, pH 7.5
[2] = molecular target: NOD2-CARDb (isolated) (human) (UniProt Q9HC29); experiment: ITC; CARDa in the syringe, CARDb in the cell; 25°C; 50 mM Tris-HCl, 100 mM NaCl, 2 mM DTT, pH 7.5; one-site model
[3] = molecular target: NOD2-CARDb (isolated) (human) (UniProt Q9HC29); experiment: ITC; CARDa in the syringe, CARDb in the cell; 30°C; 50 mM Tris-HCl, 100 mM NaCl, 2 mM DTT, pH 7.5; one-site model
[4] = molecular target: NOD2-CARDb (isolated) (human) (UniProt Q9HC29); experiment: ITC; CARDa in the syringe, CARDb in the cell; 25°C; 50 mM Tris-HCl, 100 mM NaCl, 2 mM DTT, pH 7.5; one-site model; remark: listed apart in the source
[5] = molecular target: NOD2-CARDb (isolated) (human) (UniProt Q9HC29); experiment: ITC; CARDa in the syringe, CARDb in the cell; 30°C; 50 mM Tris-HCl, 50 mM NaCl, 2 mM DTT, pH 7.5
[6] = molecular target: NOD2-CARDb (isolated) (human) (UniProt Q9HC29); experiment: AUC; sedimentation velocity; individual samples and a 1:1 mixture of CARDa and CARDb; optical density 0.5 at 280 nm; SedFit
[7] = molecular target: NOD2-CARDb (isolated) (human) (UniProt Q9HC29); experiment: ITC; CARDa in the syringe, CARDb in the cell; 30°C; 50 mM Tris-HCl, 500 mM NaCl, 2 mM DTT, pH 7.5
[8] = molecular target: NOD2-CARDb (isolated) (human) (UniProt Q9HC29); experiment: ITC; CARDa in the syringe, CARDb in the cell; 18°C; 50 mM Tris-HCl, 100 mM NaCl, 2 mM DTT, pH 7.5; one-site model
[9] = molecular target: NOD2-CARDb (isolated) (human) (UniProt Q9HC29); experiment: ITC; CARDa in the syringe, CARDb in the cell; 30°C; 50 mM Tris-HCl, 250 mM NaCl, 2 mM DTT, pH 7.5
[10] = molecular target: Tube DD (Drosophila melanogaster) (UniProt P22812); conditions: cited from earlier work
Sequence of Tube DD (Drosophila melanogaster) (P22812 27-152): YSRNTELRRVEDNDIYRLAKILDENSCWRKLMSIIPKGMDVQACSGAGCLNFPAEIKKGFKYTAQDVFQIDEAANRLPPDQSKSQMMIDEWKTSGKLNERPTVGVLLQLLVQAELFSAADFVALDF

[11] = molecular target: caspase-1 CARD (Homo sapiens) (UniProt P29466); conditions: cited from earlier work
Sequence of caspase-1 CARD (Homo sapiens) (P29466 1-94): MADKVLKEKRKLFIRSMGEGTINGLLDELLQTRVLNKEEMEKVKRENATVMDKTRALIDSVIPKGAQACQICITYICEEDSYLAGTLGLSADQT

[12] = molecular target: Pop1 PYD (Homo sapiens) (UniProt Q8WXC3); conditions: cited from earlier work
Sequence of Pop1 PYD (Homo sapiens) (Q8WXC3 whole entry): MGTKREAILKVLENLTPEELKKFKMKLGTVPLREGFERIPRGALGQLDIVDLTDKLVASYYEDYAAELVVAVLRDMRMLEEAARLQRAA

[13] = molecular target: T1, procaspase-9 CARD (UniProt P55211 1-92); experiment: ITC; data not shown; at different temperatures; conditions: both partners purified
T1 construct: procaspase-9, CARD
T1 sequence (looked up): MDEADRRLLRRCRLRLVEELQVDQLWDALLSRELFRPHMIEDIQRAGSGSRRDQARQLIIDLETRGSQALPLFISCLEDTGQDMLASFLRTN

Molecule: NOD2-CARDa (isolated, wild type) (from UniProt Q9HC29 28-119) (domain or fragment)
- Kd [1]: 7140 nM
- dH [1]: -2.6 kcal/mol
- stoichiometry N [1]: 0.78
- Kd [2]: 1100 nM
- Kd [3]: 1410 nM
- dH [3]: -7.4 kcal/mol
- stoichiometry N [3]: 0.91
- Kd [4]: 880 nM
- dH [4]: -4.7 kcal/mol
- stoichiometry N [4]: 1.03
- Kd [5]: 1090 nM
- dH [5]: -9 kcal/mol
- stoichiometry N [5]: 0.61
- stoichiometry N [6]: 1
- Kd [7]: 6250 nM
- dH [7]: -4.8 kcal/mol
- stoichiometry N [7]: 0.85
- Kd [8]: 1080 nM
- dH [8]: -2 kcal/mol
- stoichiometry N [8]: 0.84
- Kd [9]: 2990 nM
- dH [9]: -5.5 kcal/mol
- stoichiometry N [9]: 0.99

Molecule: NOD2-CARDa R86A (isolated) (from UniProt Q9HC29 28-119) (domain or fragment)
- Kd [4]: 810 nM
- dH [4]: -4.8 kcal/mol
- stoichiometry N [4]: 0.91

Molecule: NOD2-CARDa E72K (isolated) (from UniProt Q9HC29 28-119) (domain or fragment)
- Kd [4]: 330 nM
- dH [4]: -5.2 kcal/mol
- stoichiometry N [4]: 0.81

Molecule: Pelle DD (from UniProt Q05652)
- Kd [10]: 500 nM

Molecule: RIP2 CARD (from UniProt O43353)
- Kd [11]: 1400 nM

Molecule: ASC PYD (from UniProt Q9ULZ3)
- Kd [12]: 4000 nM

Molecule: NOD2-CARDa E69K (isolated) (from UniProt Q9HC29 28-119) (domain or fragment)
- Kd [4]: 720 nM
- dH [4]: -3.8 kcal/mol
- stoichiometry N [4]: 0.94

B1: Apaf-1 CARD (domain or fragment, UniProt O14727 1-90, looked up)
chain: MDAKARNCLLQHREALEKDIKTSYIMDHMISDGFLTISEEEKVRNEPTQQQRAAMLIKMILKKDNDSYVSFYNALLHEGYKDLAALLHDG
notes: Apaf-1, CARD
- Kd [13]: 1000 to 4000 nM
